# Changes are numbered by the printed parent chain.
# Assays:
# [1] = test system: T1, compound 19
# T1 sequence: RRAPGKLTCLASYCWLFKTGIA
# [2] = test system: T2, RRAPGKLT-Asp-LASY-Dap-WLFWTGIA-CONH2
# T2 sequence: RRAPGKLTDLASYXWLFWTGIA
# [3] = test system: T3, compound 5
# T3 sequence: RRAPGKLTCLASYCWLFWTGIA
# [4] = test system: T4, compound B
# T4 sequence: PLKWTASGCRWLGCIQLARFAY
# [5] = test system: T5, KKTCLASYCWLF
# T5 sequence: KKTCLASYCWLF
# [6] = test system: T6, RRAPGKLTCLASYCWLFWTGI-MeAla
# T6 sequence: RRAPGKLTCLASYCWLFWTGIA
# [7] = test system: T7, RQLWNKLTCLASYCALIGLSGT
# T7 sequence: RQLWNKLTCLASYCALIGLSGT
# [8] = test system: T8, TQWAQVGPRG RRAQG KLTCLASYCWLFWTGIA
# T8 sequence: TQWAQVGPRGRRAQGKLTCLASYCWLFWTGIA
# [9] = test system: T9, RRAPGKCTALASYAWCFWTGIA-COOH
# T9 sequence: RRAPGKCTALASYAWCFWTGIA
# [10] = test system: T10, RGRSAKLTCLASYCWLFFGVIL
# T10 sequence: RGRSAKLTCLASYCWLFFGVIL
# [11] = test system: T11, APGKLQCLASYCWLFWTGIA
# T11 sequence: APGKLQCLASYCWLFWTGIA
# [12] = test system: T12, SRSRTVSPGSRSASGKSTCLASYCWLFWTGIA
# T12 sequence: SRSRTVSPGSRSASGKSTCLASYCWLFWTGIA
# [13] = test system: T13, RRRRRKLTCLASYCWLFRRRRR
# T13 sequence: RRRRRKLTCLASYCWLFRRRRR
# [14] = test system: T14, compound 23
# T14 sequence: T12 sequence with S1P, S3I, S7G, S17L
# [15] = test system: T15, SRIRTVGPGSRSASGKLTCLASYCWLFWTGIA
# T15 sequence: T12 sequence with S3I, S7G, S17L
# [16] = test system: T16, SKQGRPISADrRAAGKLTCLASYCWLFWTGIA
# T16 sequence: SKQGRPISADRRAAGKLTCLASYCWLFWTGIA
# [17] = test system: T17, compound 6
# T17 sequence: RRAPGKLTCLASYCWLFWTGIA
# [18] = test system: T18, RRAPGKLTCLASYCWLFWTK(PEG2-Biotin)IA
# T18 sequence: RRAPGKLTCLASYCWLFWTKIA
# [19] = test system: T19, KLACLASYCWLF
# T19 sequence: KLACLASYCWLF
# [20] = test system: T20, kLTCLASYCWLF
# T20 sequence: KLTCLASYCWLF
# [21] = test system: T21, RAPGKLQCLASYCWLFWTGIA
# T21 sequence: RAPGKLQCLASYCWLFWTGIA
# [22] = test system: T22, RRAPKKLQCLASYCWLFWTGIA
# T22 sequence: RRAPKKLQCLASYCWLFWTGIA
# [23] = test system: T23, RRAPGKLTCLASYCWlFWTGIA
# T23 sequence: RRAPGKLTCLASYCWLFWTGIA
# [24] = test system: T24, k-MeLeu-TCLAS-(Y-OMe)-CWLF
# T24 sequence: KLTCLASYCWLF
# [25] = test system: T25, RRAPGKLTCL-MeAla-SYCWLFWTGIA
# T25 sequence: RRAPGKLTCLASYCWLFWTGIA
# [26] = test system: T26, rRAAGKATCLASYCWLFATGIA
# T26 sequence: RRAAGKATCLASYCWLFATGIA
# [27] = test system: T27, KLTCL-Dpr-SYCWLF
# T27 sequence: KLTCLXSYCWLF
# [28] = test system: T28, RRAPGKLCALASYCWLFWTGIA-CONH2
# T28 sequence: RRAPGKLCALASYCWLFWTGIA
# [29] = test system: T29, KLTCLASYCWLF-(PEG)4-CONH2
# T29 sequence: KLTCLASYCWLF
# [30] = test system: T30, RRAPGKLTCLASYCWLF FTGVA RSTTATTNTQ
# T30 sequence: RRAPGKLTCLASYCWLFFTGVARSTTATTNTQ
# [31] = test system: T31, RRAPGKLTCLASYCWLF WTGLA STLYKTYTRE
# T31 sequence: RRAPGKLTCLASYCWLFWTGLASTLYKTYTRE
# [32] = test system: T32, AQWVGRGQWA IRAPG KLTCLASYCWLFWTGIA
# T32 sequence: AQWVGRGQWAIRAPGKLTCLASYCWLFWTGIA
# [33] = test system: T33, RRAPGKLT-Lys-LASY-Glu-WLFWTGIA-COOH
# T33 sequence: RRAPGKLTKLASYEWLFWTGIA
# [34] = test system: T34, PRIRTVGPGSRRASGKLTCLASYCWLFWTGIA
# T34 sequence: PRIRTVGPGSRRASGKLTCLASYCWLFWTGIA
# [35] = test system: T35, rrapgkltclasycwlfwtgia (inverso)
# T35 sequence: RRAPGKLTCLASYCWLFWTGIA
# [36] = test system: T36, RRAPGCLTALASYAWLCWTGIA-COOH
# T36 sequence: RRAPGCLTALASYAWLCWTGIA
# [37] = test system: T37, RRAPGKLTCLASK(PEG2-Biotin)CWLFWTGIA
# T37 sequence: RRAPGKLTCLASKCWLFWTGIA
# [38] = test system: T38, SKQGAPISPDrRAAGKLTCLASYCWLFWTGIA
# T38 sequence: T16 sequence with R5A, A9P
# [39] = test system: T39, RRAPGKLTC-MeLeu-ASYCWLFWTGIA
# T39 sequence: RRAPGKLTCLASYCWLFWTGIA
# [40] = test system: T40, RRAPGKLTCK(PEG2-Biotin)ASYCWLFWTGIA
# T40 sequence: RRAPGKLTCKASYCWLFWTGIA
# [41] = test system: T41, RRAPGKLQCLASYCWLFWTG-Cha-A
# T41 sequence: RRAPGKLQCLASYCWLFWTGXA
# [42] = test system: T42, KLLKLLLKLLLKLLK-k-MeLeu-TCLASYCWLF
# T42 sequence: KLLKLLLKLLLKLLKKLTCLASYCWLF
# [43] = test system: T43, SKQGRPISPDrRAAGKLTCLaSYCWLFWTGIA
# T43 sequence: T16 sequence with A9P
# [44] = test system: T44, RRAPGKLTCLK(PEG2-Biotin)SYCWLFWTGIA
# T44 sequence: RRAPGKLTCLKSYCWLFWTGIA
# [45] = test system: T45, SKQGRAISPDrRAAGKLTCLASYCWLFWTGIA
# T45 sequence: T16 sequence with P6A, A9P
# [46] = test system: T46, AVVRGQEPTH RRTPG KLTCLASYCWLFWTGIA
# T46 sequence: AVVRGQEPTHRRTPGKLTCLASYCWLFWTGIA
# [47] = test system: T47, RRAPGKLT-Lys-LASY-Asp-WLFWTGIA-COOH
# T47 sequence: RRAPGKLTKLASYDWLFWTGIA
# [48] = test system: T48, compound 21
# T48 sequence: T34 sequence with R12S
# [49] = test system: T49, RRAPGKLTCLASYCWLF WAGFA ASTLAPAHHQ
# T49 sequence: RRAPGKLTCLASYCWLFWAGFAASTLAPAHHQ
# [50] = test system: T50, KLT-Glu-LASY-Dap-WLF
# T50 sequence: KLTELASYXWLF
substance,measurement,setting,value
human Factor IXa,"Vmax, FXa generation assay with hFIXa",[1],> 2
same,"Vmax, FXa generation assay",[2],> 2
same,KM (nM) of hFIXa for FX,[3],11 nM
same,"Vmax, FXa generation assay with hFIXa",[3],> 2
same,"kcat (min^-1) of hFIXa for FX, compound at 1 µM",[3],0.0179 min⁻¹
same,Δ KM (Km compound/Km buffer),[3],0.14
same,"Δ kM of FIXa, FXa generation assay",[3],0.14
same,"Δ kcat of FIXa, FXa generation assay",[3],199 fold
same,"Vmax, FXa generation assay with hFIXa; (++) means 1-2",[4],(++)
same,"Vmax, FXa generation assay; (++) means 1-2",[5],(++)
same,"Vmax, FXa generation assay; (++) means 1-2",[6],(++)
same,"Vmax, FXa generation assay; (++) means 1-2",[7],(++)
same,"Vmax, FXa generation assay",[8],> 3
same,"Vmax, FXa generation assay",[9],> 2
same,"Vmax, FXa generation assay",[10],> 2
same,"Vmax, FXa generation assay; (++) means 1-2",[11],(++)
same,"Vmax, FXa generation assay",[12],> 3
same,"Vmax, FXa generation assay",[13],> 2
same,"Vmax, FXa generation assay with hFIXa",[14],> 3
same,"Vmax, FXa generation assay",[15],> 3
same,"Vmax, FXa generation assay",[16],> 3
same,"Vmax, FXa generation assay with hFIXa",[17],> 2
same,"Vmax, FXa generation assay",[18],> 2
same,"Vmax, FXa generation assay",[19],> 2
same,"Vmax, FXa generation assay",[20],> 2
same,"Vmax, FXa generation assay; (++) means 1-2",[21],(++)
same,"Vmax, FXa generation assay; (++) means 1-2",[22],(++)
same,"Vmax, FXa generation assay; (++) means 1-2",[23],(++)
same,"Vmax, FXa generation assay",[24],> 3
same,"Vmax, FXa generation assay; (++) means 1-2",[25],(++)
same,"Vmax, FXa generation assay; (++) means 1-2",[26],(++)
same,"Vmax, FXa generation assay; (++) means 1-2",[27],(++)
same,"Vmax, FXa generation assay",[28],> 2
same,"Vmax, FXa generation assay; (++) means 1-2",[29],(++)
same,"Vmax, FXa generation assay",[30],> 2
same,"Vmax, FXa generation assay; (++) means 1-2",[31],(++)
same,"Vmax, FXa generation assay",[32],> 2
same,"Vmax, FXa generation assay; (++) means 1-2",[33],(++)
same,"Vmax, FXa generation assay",[34],> 3
same,"Vmax, FXa generation assay",[35],> 2
same,"Vmax, FXa generation assay",[36],> 0.1
same,"Vmax, FXa generation assay; (++) means 1-2",[37],(++)
same,"Vmax, FXa generation assay",[38],> 3
same,"Vmax, FXa generation assay; (++) means 1-2",[39],(++)
same,"Vmax, FXa generation assay; (++) means 1-2",[40],(++)
same,"Vmax, FXa generation assay",[41],> 3
same,"Vmax, FXa generation assay",[42],> 2
same,"Vmax, FXa generation assay",[43],> 0.5
same,"Vmax, FXa generation assay; (++) means 1-2",[44],(++)
same,"Vmax, FXa generation assay",[45],> 3
same,"Vmax, FXa generation assay",[46],> 3
same,"Vmax, FXa generation assay",[47],> 0.5
same,"Vmax, FXa generation assay with hFIXa",[48],> 3
same,"Vmax, FXa generation assay",[49],> 2
same,"Vmax, FXa generation assay; (++) means 1-2",[50],(++)

# Source: patent US20140303084
